In PMC11650716, “Identification of a robust bacterial pyranose oxidase that displays an unusual pH dependence” (The Journal of Biological Chemistry, 2024):

What was measured:
[1] = target: pyranose oxidase from Oscillatoria princeps (OPOx) (Oscillatoria princeps); assay: dynamic light scattering + SEC; DLS: about 15 μM OPOx in 50 mM citrate buffer (pH 5.5), 294 K; gel permeation chromatography (Fig. S3)
[2] = target: pyranose oxidase from Oscillatoria princeps (OPOx) (Oscillatoria princeps); assay: crystal structure; X-ray, 2.64 Å, space group P2(1)2(1)2(1), tetramer in the asymmetric unit; crystals with sodium sulfate as additive at pH 9.2. A low-resolution C222(1) crystal form has a dimer in the asymmetric unit and forms the tetramer through a crystallographic two-fold axis
[3] = target: T1, OPOx (pyranose oxidase from Oscillatoria princeps) (Oscillatoria princeps, UniProt A0ABF7PQA8); assay: X-ray crystal structure, […] Å; type: binding; details: covalent; 8α-methyl of FAD bound to His125 NE2; crystals at pH 9.2
T1 construct: full length, 534 residues (533 also printed), N-terminal His-tag, pBAD vector, E. coli NEB 10-beta; synthetic codon-optimised gene; 61 kDa with tag; homotetramer
T1 sequence (A0ABF7PQA8 1-533): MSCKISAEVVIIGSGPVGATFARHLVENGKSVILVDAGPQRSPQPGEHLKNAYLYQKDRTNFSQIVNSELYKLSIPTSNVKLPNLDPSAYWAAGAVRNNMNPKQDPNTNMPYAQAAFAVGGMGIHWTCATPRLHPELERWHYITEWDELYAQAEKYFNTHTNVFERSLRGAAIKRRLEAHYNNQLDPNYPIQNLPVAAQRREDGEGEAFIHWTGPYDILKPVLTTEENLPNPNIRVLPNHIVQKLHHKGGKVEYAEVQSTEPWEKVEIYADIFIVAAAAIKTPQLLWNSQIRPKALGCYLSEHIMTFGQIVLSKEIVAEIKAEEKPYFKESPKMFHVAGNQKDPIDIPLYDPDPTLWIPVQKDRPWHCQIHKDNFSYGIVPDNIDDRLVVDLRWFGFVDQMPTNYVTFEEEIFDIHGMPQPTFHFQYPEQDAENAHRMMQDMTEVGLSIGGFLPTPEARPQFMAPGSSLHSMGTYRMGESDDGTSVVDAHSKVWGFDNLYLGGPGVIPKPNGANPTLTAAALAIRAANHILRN

stoichiometry N [1]	stoichiometry N [2]	Molecule	X-ray crystal structure, 2.64 Å [3]
4	4	pyranose oxidase from Oscillatoria princeps (OPOx) (enzyme)	–
–	–	Cc1cc2nc3c(=O)[nH]c(=O)nc-3n(C[C@H](O)[C@H](O)[C@H](O)COP(=O)(O)OP(=O)(O)OC[C@H]3O[C@@H](n4cnc5c(N)ncnc54)[C@H](O)[C@@H]3O)c2cc1C [FAD]	crystal structure of OPOx with a covalently bound FAD cofactor per subunit
